Results from article PMC10104851, “SynDLP is a dynamin-like protein of Synechocystis sp. PCC 6803 with eukaryotic features” (Nature Communications, 2023).
Numbering of substitutions follows the chain as printed. Names and notes keep the numbering of the source.

B1: SynDLP (Synechocystis sp. PCC 6803 substr. Kazusa) (protein)
chain: MSKIAPQCQNLREQVNQLIELLRQEPTLRSQQDTSIVETALGKALSPRFEIVFAGAFSAGKSMLINALLERELLYSAEGHATGTECHIEYANANEERVVLTFLSEAEIRQQALILAKYLNVNVGDLNINQPEAVKVVSQYCQKIIAEEGGENKSERAKQANALHLLLIGFEQNRERINTVQNSTYSMDQLNFSSLAEAAGYARRGANSAVLKRLDYFCNHSLLKDGNVLVDLPGIDAPVKEDAERAYRKIESPDTSAVICVLKPAAAGDMSAEETQLLERISKNHGIRDRVFYVFNRIDDTWYNTQLRQRLEGLIQSQFRDNSRVYKTSGLLGFYGSQVKQTNSSTRFGLDSIFATTIKGFDGEEETPQFVSEFNNYCANSGKLLSTAFRVSVNGYETSNENYVRILSEWGIPLVDQLIHDSGIESFRSGIGLYLAEEKYPELFATLANDLQPLCIALRQFYLENYRQLDSQPREIAAMKAQELTLLNQEMQNLGIEFKKYMSAQINDVVIGNDREFDQDFTKLKARMVARLDELLKTFSVMNAYKRATESHPRNSTAPFIAVLVEALYYLANELEDAFIEAIHELVKNFFQRLGDRLRKVDCYHQVYRLVGNDGGIEQLLRRAEEDITKALVNEARTECDRYVRESPRFYDEGTFSIYQFRQTLQQTSQGYDAQAIVEAEPAIKELLKLDFEPKVFNTVRKNFRQTVNNTLKTHLLPMAEEQAQIILEQYDVARKYREQTLEQDAEEKIARNSRLQSEIKQKIDLYQTSIVSINECLKAMQIFEQLPVITESDITKQAEIVADADFVEIVE
notes: full length, C-terminal His tag (pET303-CT/His), E. coli Rosetta-gami 2 (DE3), calculated 93 kDa; oligomer of ~40-50 monomers in solution; model covers aa 1-793, last 19 residues unresolved
B2: SynDLP (Synechocystis sp. PCC 6803 substr. Kazusa; C777A) (protein)
chain: B1 chain with C777A
notes: as for B1
B3: SynDLP (Synechocystis sp. PCC 6803 substr. Kazusa; H552A/N555A/P553A/R554A) (protein)
chain: B1 chain with H552A, P553A, R554A, N555A
notes: as for B1

Experiments:
[1] = biological target: SynDLP_(HPRN-AAAA) (Synechocystis sp. PCC 6803)
[2] = biological target: SynDLP_(HPRN-AAAA) (Synechocystis sp. PCC 6803); experiment: SEC; analytical SEC, Superose 6 Increase 3.2/300 in reaction buffer (20 mM HEPES pH 7.4, 150 mM NaCl, 7.5 mM KCl, 5 mM MgCl2, 0.2 mM DTT); 30 µl of 10 µM protein; 7 °C; no nucleotide, no membrane
[3] = biological target: SynDLP, the dynamin-like protein of Synechocystis sp. PCC 6803 (Synechocystis sp. PCC 6803)
[4] = biological target: SynDLP, the dynamin-like protein of Synechocystis sp. PCC 6803 (Synechocystis sp. PCC 6803); experiment: cryo-EM structure; about 3.0 mg/mL SynDLP in 5 mM MgCl2, 7.5 mM KCl, 20 mM HEPES pH 7.4 (no NaCl), no nucleotide, no membrane; segmented single-particle analysis, C2 symmetry; model of 8 monomers
[5] = biological target: T1, SynDLP (Synechocystis sp. PCC 6803, UniProt P73765, K61A); experiment: continuous regenerative coupled GTPase assay; type: biochemical; conditions: P-loop mutant
T1 construct: gene slr0869; full length, C-terminal His tag (pET303-CT/His), E. coli Rosetta-gami 2 (DE3), calculated 93 kDa; oligomer of ~40-50 monomers in solution; model covers aa 1-793, last 19 residues unresolved
T1 sequence (P73765 entry or part of it K61A): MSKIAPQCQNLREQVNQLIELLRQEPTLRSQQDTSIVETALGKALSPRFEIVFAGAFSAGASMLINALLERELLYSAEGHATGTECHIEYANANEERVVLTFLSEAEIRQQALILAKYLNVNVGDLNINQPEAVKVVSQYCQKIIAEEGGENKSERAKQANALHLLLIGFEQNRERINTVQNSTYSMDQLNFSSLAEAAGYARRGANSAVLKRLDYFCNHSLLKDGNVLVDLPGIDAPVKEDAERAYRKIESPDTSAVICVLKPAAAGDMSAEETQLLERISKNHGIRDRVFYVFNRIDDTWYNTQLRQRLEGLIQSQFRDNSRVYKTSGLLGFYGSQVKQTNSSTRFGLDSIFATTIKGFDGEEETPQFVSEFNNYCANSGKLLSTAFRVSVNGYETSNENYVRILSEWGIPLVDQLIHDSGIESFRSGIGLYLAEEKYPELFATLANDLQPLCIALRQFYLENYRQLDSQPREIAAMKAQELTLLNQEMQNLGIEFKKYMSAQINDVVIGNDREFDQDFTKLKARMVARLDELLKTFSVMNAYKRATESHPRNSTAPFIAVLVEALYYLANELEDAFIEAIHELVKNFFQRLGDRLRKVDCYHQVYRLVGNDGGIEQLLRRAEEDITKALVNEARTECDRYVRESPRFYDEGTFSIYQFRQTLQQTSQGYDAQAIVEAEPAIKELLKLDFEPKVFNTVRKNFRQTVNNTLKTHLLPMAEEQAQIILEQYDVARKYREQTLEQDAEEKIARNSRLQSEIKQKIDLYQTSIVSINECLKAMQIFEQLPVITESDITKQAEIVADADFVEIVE

[6] = substrate: Nc1nc2c(ncn2[C@@H]2O[C@H](COP(=O)(O)OP(=O)(O)OP(=O)(O)O)[C@@H](O)[C@H]2O)c(=O)[nH]1; experiment: continuous regenerative coupled GTPase assay (PK/LDH, NADH); type: biochemical, Synechocystis sp. PCC 6803; conditions: 0.5 µM protein, 20 mM HEPES pH 7.4, 150 mM NaCl, 7.5 mM KCl, 5 mM MgCl2, 0.2 mM DTT, 30 °C, no liposomes
Source text: continuous regenerative coupled GTPase assay (PK/LDH, NADH) on […]

Molecule | Km [6] | kcat [6] | also measured
SynDLP_(HPRN-AAAA) (natural protein) |  |  | kcat of GTP hydrolysis (continuous, regenerative, coupled GTPase assay, 0.5 µM protein) [1]: 0.283 s⁻¹; stoichiometry N [2]: 2
SynDLP, the dynamin-like protein of Synechocystis sp. PCC 6803 (natural protein) |  |  | kcat of GTP hydrolysis (continuous, regenerative, coupled GTPase assay, 0.5 µM protein) [3]: 0.743 s⁻¹; stoichiometry N [4]: 40 to 50 monomers
Nc1nc2c(ncn2[C@@H]2O[C@H](COP(=O)(O)OP(=O)(O)OP(=O)(O)O)[C@@H](O)[C@H]2O)c(=O)[nH]1 [GTP] |  |  | continuous regenerative coupled GTPase assay [5]: A mutation of a conserved residue in the P-loop (K61A) considerably reduced the GTPase activity
B1 | 500 ± 40 µM | 0.743 ± 0.0167 s⁻¹ | 
B2 | 350 ± 40 µM | 0.462 ± 0.0133 s⁻¹ | 
B3 | 330 ± 20 µM | 0.283 ± 0.00333 s⁻¹ | 
